# B1: N-terminal GST-fused wild-type PREP1 [not stated] / PBX1_(1-430), wild-type recombinant [human] (parent complex)
# chain 1: MMATQTLSIDSYQDGQQMQVVTELKTEQDPNCSEPDAEGVSPPPVESQTPMDVDKQAIYRHPLFPLLALLFEKCEQSTQGSEGTTSASFDVDIENFVRKQEKEGKPFFCEDPETDNLMVKAIQVLRIHLLELEKVNELCKDFCSRYIACLKTKMNSETLLSGEPGSPYSPVQSQQIQSAITGTISPQGIVVPASALQQGNVAMATVAGGTVYQPVTVVTPQGQVVTQTLSPGTIRIQNSQLQLQLNQDLSILHQDDGSSKNKRGVLPKHATNVMRSWLFQHIGHPYPTEDEKKQIAAQTNLTLLQVNNWFINARRRILQPMLDSSCSETPKTKKKTAQNRPVQRFWPDSIASGVAQPPPSELTMSEGAVVTITTPVNMNVDSLQSLSSDGATLAVQQVMMAGQSEDESVDSTEEDAGALAPAHISGLVLENSDSLQ
# chain 2: MDEQPRLMHSHAGVGMAGHPGLSQHLQDGAGGTEGEGGRKQDIGDILQQIMTITDQSLDEAQARKHALNCHRMKPALFNVLCEIKEKTVLSIRGAQEEEPTDPQLMRLDNMLLAEGVAGPEKGGGSAAAAAAAAASGGAGSDNSVEHSDYRAKLSQIRQIYHTELEKYEQACNEFTTHVMNLLREQSRTRPISPKEIERMVSIIHRKFSSIQMQLKQSTCEAVMILRSRFLDARRKRRNFNKQATEILNEYFYSHLSNPYPSEEAKEELAKKCGITVSQVSNWFGNKRIRYKKNIGKFQEEANIYAAKTAVTATNVSAHGSQANSPSTPNSAGSSSSFNMSNSGDLFMSVQSLNGDSYQGAQVGANVQSQVDTLRHVISQTGGYSDGLAASQMYSPQGISANGGWQDATTPSSVTSPTEGPGSVHSDTSN
# Variants of: B1
# Test: TR-FIA; parent: 1; read off a plot
row,Variant,ratio to parent
1,chain 1 MMATQTLSIDSYQDGQQMQVVTELKTEQDPNCSEPDAEGVSPPPVESQTPMDVDKQAIYRHPLFPALALLFEKCEQSTQGSEGTTSASFDVDIENFVRKQEKEGKPFFCEDPETDNLMVKAIQVLRIHLLELEKVNELCKDFCSRYIACLKTKMNSETLLSGEPGSPYSPVQSQQIQSAITGTISPQGIVVPASALQQGNVAMATVAGGTVYQPVTVVTPQGQVVTQTLSPGTIRIQNSQLQLQLNQDLSILHQDDGSSKNKRGVLPKHATNVMRSWLFQHIGHPYPTEDEKKQIAAQTNLTLLQVNNWFINARRRILQPMLDSSCSETPKTKKKTAQNRPVQRFWPDSIASGVAQPPPSELTMSEGAVVTITTPVNMNVDSLQSLSSDGATLAVQQVMMAGQSEDESVDSTEEDAGALAPAHISGLVLENSDSLQ [chain 1 L66A],~0.59
2,chain 1 MMATQTLSIDSYQDGQQMQVVTELKTEQDPNCSEPDAEGVSPPPVESQTPMDVDKQAIYRHPLFPLLALLFEKCEQSTQGSEGTTSASFDVDIENFVRKQEKEGKPFFCEDPETDNLMVKAIQVLRIHLLELEKVNELCKDFCSRYIACLKTKMNSETLLSGEPGSPYSPVQSQQIQSAITGTISPQGIVVPASALQQGNVAMATVAGGTVYQPVTVVTPQGQVVTQTLSPGTIRIQNSQLQLQANQDLSILHQDDGSSKNKRGVLPKHATNVMRSWLFQHIGHPYPTEDEKKQIAAQTNLTLLQVNNWFINARRRILQPMLDSSCSETPKTKKKTAQNRPVQRFWPDSIASGVAQPPPSELTMSEGAVVTITTPVNMNVDSLQSLSSDGATLAVQQVMMAGQSEDESVDSTEEDAGALAPAHISGLVLENSDSLQ [chain 1 L245A],~1
3,chain 1 MMATQTLSIDSYQDGQQMQVVTELKTEQDPNCSEPDAEGVSPPPVESQTPMDVDKQAIYRHPLFPLLALAFEKCEQSTQGSEGTTSASFDVDIENFVRKQEKEGKPFFCEDPETDNLMVKAIQVLRIHLLELEKVNELCKDFCSRYIACLKTKMNSETLLSGEPGSPYSPVQSQQIQSAITGTISPQGIVVPASALQQGNVAMATVAGGTVYQPVTVVTPQGQVVTQTLSPGTIRIQNSQLQLQLNQDLSILHQDDGSSKNKRGVLPKHATNVMRSWLFQHIGHPYPTEDEKKQIAAQTNLTLLQVNNWFINARRRILQPMLDSSCSETPKTKKKTAQNRPVQRFWPDSIASGVAQPPPSELTMSEGAVVTITTPVNMNVDSLQSLSSDGATLAVQQVMMAGQSEDESVDSTEEDAGALAPAHISGLVLENSDSLQ [chain 1 L70A],~0.53
4,chain 1 MMATQTLSIDSYQDGQQMQVVTELKTEQDPNCSEPDAEGVSPPPVESQTPMDVDKQAIYRHPLFPLLALLFEKCEQSTQGSEGTTSASFDVDIENFVRKQEKEGKPFFCEDPETDNLMVKAIQVARIHLLELEKVNELCKDFCSRYIACLKTKMNSETLLSGEPGSPYSPVQSQQIQSAITGTISPQGIVVPASALQQGNVAMATVAGGTVYQPVTVVTPQGQVVTQTLSPGTIRIQNSQLQLQLNQDLSILHQDDGSSKNKRGVLPKHATNVMRSWLFQHIGHPYPTEDEKKQIAAQTNLTLLQVNNWFINARRRILQPMLDSSCSETPKTKKKTAQNRPVQRFWPDSIASGVAQPPPSELTMSEGAVVTITTPVNMNVDSLQSLSSDGATLAVQQVMMAGQSEDESVDSTEEDAGALAPAHISGLVLENSDSLQ [chain 1 L125A],~0.63
5,chain 1 MMATQTLSIDSYQDGQQMQVVTELKTEQDPNCSEPDAEGVSPPPVESQTPMDVDKQAIYRHPLFPLLALLFEKCEQSTQGSEGTTSASFDVDIENFVRKQEKEGKPFFCEDPETDNLMVKAIQVLRIHALELEKVNELCKDFCSRYIACLKTKMNSETLLSGEPGSPYSPVQSQQIQSAITGTISPQGIVVPASALQQGNVAMATVAGGTVYQPVTVVTPQGQVVTQTLSPGTIRIQNSQLQLQLNQDLSILHQDDGSSKNKRGVLPKHATNVMRSWLFQHIGHPYPTEDEKKQIAAQTNLTLLQVNNWFINARRRILQPMLDSSCSETPKTKKKTAQNRPVQRFWPDSIASGVAQPPPSELTMSEGAVVTITTPVNMNVDSLQSLSSDGATLAVQQVMMAGQSEDESVDSTEEDAGALAPAHISGLVLENSDSLQ [chain 1 L129A],~0.43
6,chain 1 MMATQTLSIDSYQDGQQMQVVTELKTEQDPNCSEPDAEGVSPPPVESQTPMDVDKQAIYRHPLFPLLALLFEKCEQSTQGSEGTTSASFDVDIENFVRKQEKEGKPFFCEDPETDNLMVKAIQVLRIHLAELEKVNELCKDFCSRYIACLKTKMNSETLLSGEPGSPYSPVQSQQIQSAITGTISPQGIVVPASALQQGNVAMATVAGGTVYQPVTVVTPQGQVVTQTLSPGTIRIQNSQLQLQLNQDLSILHQDDGSSKNKRGVLPKHATNVMRSWLFQHIGHPYPTEDEKKQIAAQTNLTLLQVNNWFINARRRILQPMLDSSCSETPKTKKKTAQNRPVQRFWPDSIASGVAQPPPSELTMSEGAVVTITTPVNMNVDSLQSLSSDGATLAVQQVMMAGQSEDESVDSTEEDAGALAPAHISGLVLENSDSLQ [chain 1 L130A],~0.79
7,chain 1 MMATQTLSIDSYQDGQQMQVVTELKTEQDPNCSEPDAEGVSPPPVESQTPMDVDKQAIYRHPLFPLLALLFEKCEQSTQGSEGTTSASFDVDIENFVRKQEKEGKPFFCEDPETDNLMVKAIQVLRIHLLELEKVNELCKDFCSRYIACLKTKMNSETLLSGEPGSPYSPVQSQQIQSAITGTISPQGIVVPASALQQGNVAMATVAGGTVYQPVTVVTPQGQVVTQTLSPGTIRIQNSQLQLQLNQDLSIAHQDDGSSKNKRGVLPKHATNVMRSWLFQHIGHPYPTEDEKKQIAAQTNLTLLQVNNWFINARRRILQPMLDSSCSETPKTKKKTAQNRPVQRFWPDSIASGVAQPPPSELTMSEGAVVTITTPVNMNVDSLQSLSSDGATLAVQQVMMAGQSEDESVDSTEEDAGALAPAHISGLVLENSDSLQ [chain 1 L252A],~0.95
8,chain 1 MMATQTLSIDSYQDGQQMQVVTELKTEQDPNCSEPDAEGVSPPPVESQTPMDVDKQAIYRHPLFPLLAALFEKCEQSTQGSEGTTSASFDVDIENFVRKQEKEGKPFFCEDPETDNLMVKAIQVLRIHLLELEKVNELCKDFCSRYIACLKTKMNSETLLSGEPGSPYSPVQSQQIQSAITGTISPQGIVVPASALQQGNVAMATVAGGTVYQPVTVVTPQGQVVTQTLSPGTIRIQNSQLQLQLNQDLSILHQDDGSSKNKRGVLPKHATNVMRSWLFQHIGHPYPTEDEKKQIAAQTNLTLLQVNNWFINARRRILQPMLDSSCSETPKTKKKTAQNRPVQRFWPDSIASGVAQPPPSELTMSEGAVVTITTPVNMNVDSLQSLSSDGATLAVQQVMMAGQSEDESVDSTEEDAGALAPAHISGLVLENSDSLQ [chain 1 L69A],~1.1
9,chain 1 MMATQTLSIDSYQDGQQMQVVTELKTEQDPNCSEPDAEGVSPPPVESQTPMDVDKQAIYRHPLFPLLALLFEKCEQSTQGSEGTTSASFDVDIENFVRKQEKEGKPFFCEDPETDNLMVKAIQVLRIHLLELEKVNELCKDFCSRYIACLKTKMNSETLLSGEPGSPYSPVQSQQIQSAITGTISPQGIVVPASALQQGNVAMATVAGGTVYQPVTVVTPQGQVVTQTLSPGTIRIQNSQLQLQLNQDASILHQDDGSSKNKRGVLPKHATNVMRSWLFQHIGHPYPTEDEKKQIAAQTNLTLLQVNNWFINARRRILQPMLDSSCSETPKTKKKTAQNRPVQRFWPDSIASGVAQPPPSELTMSEGAVVTITTPVNMNVDSLQSLSSDGATLAVQQVMMAGQSEDESVDSTEEDAGALAPAHISGLVLENSDSLQ [chain 1 L249A],~0.96
10,chain 1 MMATQTLSIDSYQDGQQMQVVTELKTEQDPNCSEPDAEGVSPPPVESQTPMDVDKQAIYRHPLFPLLALLFEKCEQSTQGSEGTTSASFDVDIENFVRKQEKEGKPFFCEDPETDNLMVKAAQVLRIHLLELEKVNELCKDFCSRYIACLKTKMNSETLLSGEPGSPYSPVQSQQIQSAITGTISPQGIVVPASALQQGNVAMATVAGGTVYQPVTVVTPQGQVVTQTLSPGTIRIQNSQLQLQLNQDLSILHQDDGSSKNKRGVLPKHATNVMRSWLFQHIGHPYPTEDEKKQIAAQTNLTLLQVNNWFINARRRILQPMLDSSCSETPKTKKKTAQNRPVQRFWPDSIASGVAQPPPSELTMSEGAVVTITTPVNMNVDSLQSLSSDGATLAVQQVMMAGQSEDESVDSTEEDAGALAPAHISGLVLENSDSLQ [chain 1 I122A],~0.79
11,chain 1 MMATQTLSIDSYQDGQQMQVVTELKTEQDPNCSEPDAEGVSPPPVESQTPMDVDKQAIYRHPLFPLAALLFEKCEQSTQGSEGTTSASFDVDIENFVRKQEKEGKPFFCEDPETDNLMVKAIQVLRIHLLELEKVNELCKDFCSRYIACLKTKMNSETLLSGEPGSPYSPVQSQQIQSAITGTISPQGIVVPASALQQGNVAMATVAGGTVYQPVTVVTPQGQVVTQTLSPGTIRIQNSQLQLQLNQDLSILHQDDGSSKNKRGVLPKHATNVMRSWLFQHIGHPYPTEDEKKQIAAQTNLTLLQVNNWFINARRRILQPMLDSSCSETPKTKKKTAQNRPVQRFWPDSIASGVAQPPPSELTMSEGAVVTITTPVNMNVDSLQSLSSDGATLAVQQVMMAGQSEDESVDSTEEDAGALAPAHISGLVLENSDSLQ [chain 1 L67A],~0.65
12,chain 1 MMATQTLSIDSYQDGQQMQVVTELKTEQDPNCSEPDAEGVSPPPVESQTPMDVDKQAIYRHPLFPLLALLFEKCEQSTQGSEGTTSASFDVDIENFVRKQEKEGKPFFCEDPETDNLMVKAIQALRIHLLELEKVNELCKDFCSRYIACLKTKMNSETLLSGEPGSPYSPVQSQQIQSAITGTISPQGIVVPASALQQGNVAMATVAGGTVYQPVTVVTPQGQVVTQTLSPGTIRIQNSQLQLQLNQDLSILHQDDGSSKNKRGVLPKHATNVMRSWLFQHIGHPYPTEDEKKQIAAQTNLTLLQVNNWFINARRRILQPMLDSSCSETPKTKKKTAQNRPVQRFWPDSIASGVAQPPPSELTMSEGAVVTITTPVNMNVDSLQSLSSDGATLAVQQVMMAGQSEDESVDSTEEDAGALAPAHISGLVLENSDSLQ [chain 1 V124A],~0.91
13,chain 1 MMATQTLSIDSYQDGQQMQVVTELKTEQDPNCSEPDAEGVSPPPVESQTPMDVDKQAIYRHPLFPLLALLFEKCEQSTQGSEGTTSASFDVDIENFVRKQEKEGKPFFCEDPETDNAMVKAIQVLRIHLLELEKVNELCKDFCSRYIACLKTKMNSETLLSGEPGSPYSPVQSQQIQSAITGTISPQGIVVPASALQQGNVAMATVAGGTVYQPVTVVTPQGQVVTQTLSPGTIRIQNSQLQLQLNQDLSILHQDDGSSKNKRGVLPKHATNVMRSWLFQHIGHPYPTEDEKKQIAAQTNLTLLQVNNWFINARRRILQPMLDSSCSETPKTKKKTAQNRPVQRFWPDSIASGVAQPPPSELTMSEGAVVTITTPVNMNVDSLQSLSSDGATLAVQQVMMAGQSEDESVDSTEEDAGALAPAHISGLVLENSDSLQ [chain 1 L117A],~0.48

# — article PMC7545097, “Mapping the native interaction surfaces of PREP1 with PBX1 by cross-linking mass-spectrometry and mutagenesis” (Scientific Reports, 2020)
